Assay results as given in patent publication US20150283219A1 (INVECTYS, published 2015).

Legend:
Assay in all cases: competitive ELISA, mean of three experiments
HLA-DR15 = HLA-DR15 (human)
HLA-DRB3 = HLA-DRB3 (human)
HLA-DRB4 = HLA-DRB4 (human)
HLA-DRB5 = HLA-DRB5 (human)
HLA-DR1 = HLA-DR1 (human)
HLA-DR4 = HLA-DR4 (human)
HLA-DR7 = HLA-DR7 (human)

Row | relative affinity (RA, IC50 of UCP / IC50 of reference peptide) (HLA-DR15) | relative affinity (RA, IC50 of UCP / IC50 of reference peptide) (HLA-DRB3) | relative affinity (RA, IC50 of UCP / IC50 of reference peptide) (HLA-DRB4) | relative affinity (RA, IC50 of UCP / IC50 of reference peptide) (HLA-DRB5) | relative affinity (RA, IC50 of UCP / IC50 of reference peptide) (HLA-DR1) | relative affinity (RA, IC50 of UCP / IC50 of reference peptide) (HLA-DR4) | relative affinity (RA, IC50 of UCP / IC50 of reference peptide) (HLA-DR7) | Binder
1 | 4 ratio | 30 ratio | 4 ratio | 1 ratio | 3 ratio | 50 ratio | 3 ratio | PAAFRALVAQCLVCV (Synthetic 15-mer (>80% purity, Activotec) derived from human TERT; also called UCP44; p44) [UCP1 (TERT44-58)]
2 | 3 ratio | 154 ratio |  | 0.5 ratio | 0.3 ratio | 34 ratio | 8 ratio | SLCYSILKAKNAGMS (Synthetic 15-mer (>80% purity, Activotec) derived from human TERT; also called UCP1041; p1041) [UCP4 (TERT1041-1055)]
3 | 8 ratio | 154 ratio | 229 ratio | 1 ratio | 0.2 ratio | 112 ratio | 1 ratio | KSVWSKLQSIGIRQH (Synthetic 15-mer (>80% purity, Activotec) derived from human TERT; also called UCP578; p578) [UCP2 (TERT578-592)]
